Experimental data taken from US20250332264A1, “GhR-BINDING PEPTIDE AND COMPOSITION COMPRISING SAME” (priority 2021, published 2025).
Starred links: 1 amine or outer side, 2 acyl side, 3 side chain; linkers in the order of their positions; H or OH if unused. Positions of bridges follow the written chain, without caps; N, C: chain ends. Non-standard residues stand in square brackets, D forms with d. Groups on a side chain read outwards from the residue. No end group written: not given here. *: point of attachment. A4pipaa = 4-amino-1-(carboxymethyl)piperidine-4-carboxylic acid, O=C(C1(N[*:1])CCN(CC(=O)[*:3])CC1)[*:2]; BiPh4pCO = 4-([1,1′-biphenyl]-4-yl)butanoic acid, O=C(CCCc1ccc(-c2ccccc2)cc1)*; Biph4pCO = 4-([1,1′-biphenyl]-4-yl)butanoic acid, O=C(CCCc1ccc(-c2ccccc2)cc1)*; X1 = 4‑(carboxymethyl)piperazine‑1‑carbonyl, O=C(O)CN1CCN(C(=O)*)CC1; Trp(1-CH2CO) = O=C([C@H](Cc1cn(CC(=O)[*:3])c2ccccc12)N[*:1])[*:2]; Trp(5-OMe) = COc1ccc2[nH]cc(C[C@H](N)C(=O)O)c2c1; Butanoyl(4-(4-I-phenyl)) = O=C(CCCc1ccc(I)cc1)*; Trp(5-OH) = N[C@@H](Cc1c[nH]c2ccc(O)cc12)C(=O)O; Phe(4-COOH) = N[C@@H](Cc1ccc(C(=O)O)cc1)C(=O)O; Trp(7-aza) = N[C@@H](Cc1c[nH]c2ncccc12)C(=O)O; Butanoyl(4-(4-MePh)) = Cc1ccc(CCCC(=O)*)cc1; C17 diacid = O=C(O)CCCCCCCCCCCCCCCC(=O)*; C16 diacid = O=C(O)CCCCCCCCCCCCCCC(=O)*; C15 diacid = O=C(O)CCCCCCCCCCCCCC(=O)*; C14 diacid = O=C(O)CCCCCCCCCCCCC(=O)*; Hexanoyl(6-Ph) = O=C(CCCCCc1ccccc1)*; Butanoyl(4-Ph) = O=C(CCCc1ccccc1)*; 4Pal = N[C@@H](Cc1ccncc1)C(=O)O; NMeK = CN[C@@H](CCCCN)C(=O)O; W5H = not defined here; AEEA = NCCOCCOCC(=O)O; Aib = CC(C)(N)C(=O)O

Molecular target: Recombinant human GhR-Fc protein (R&D Systems) (human) (UniProt P10912)
Assay: SPR, Biacore T200, single-cycle kinetics, GhR-Fc immobilised on CM5

Recombinant human GhR-Fc protein (R&D Systems) (human), sequence (P10912 19-264 limits assumed): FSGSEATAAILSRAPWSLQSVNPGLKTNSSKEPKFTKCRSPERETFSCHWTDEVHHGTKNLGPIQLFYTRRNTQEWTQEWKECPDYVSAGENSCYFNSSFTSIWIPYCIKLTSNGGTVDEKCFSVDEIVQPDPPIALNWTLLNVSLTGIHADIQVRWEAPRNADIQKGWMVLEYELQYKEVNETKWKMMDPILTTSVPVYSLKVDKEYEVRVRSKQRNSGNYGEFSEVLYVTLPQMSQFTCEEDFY

Question: With {CH2CO}-[Phe(4-COOH)]KVVSN[Trp(1-CH2CO)][Phe(4-COOH)]K[Trp(5-OH)][Aib]VCK([Glu-Glu-Butanoyl(4-Ph)])-NH2 (thioether N-13; lactam 2-7; not fully specified (residue 2)) [GhR_PD_218] as the binder, how does the Kd read?
Answer: Its Kd is 2.03 nM.

B1: GhR_PD_233 (peptide)
peptide: {CH2CO}-[F4COO][MeK]VVSN[W1aa][F4COO]K[W5H][Aib]VCK
modifications: thioether N-13; lactam 2-7; reading uncertain; also: albumin binder E-E-cC14COO on the side-chain amino group of the linker lysine, which lysine is not given here
Question: Which Kd does the source give for B1 here?
Answer: Its Kd is 2.85 nM.

Question: {CH2CO}-[Phe(4-COOH)]KVVSN[Trp(1-CH2CO)][Phe(4-COOH)]K[Trp(5-OH)][Aib]VCK([Glu-Glu-Butanoyl(4-(4-MePh))])-NH2 (thioether N-13; lactam 2-7; not fully specified (residue 2)) [GhR_PD_245] was tested. Which Kd did it give?
Answer: The Kd was 1.95 nM.

Question: How did the Kd turn out when {CH2CO}-[Phe(4-COOH)]KVVSN[Trp(1-CH2CO)][Phe(4-COOH)]K[Trp(5-OH)][Aib]VCK([Glu-Butanoyl(4-(4-I-phenyl))])-NH2 (thioether N-13; lactam 2-7; not fully specified (residue 2)) [GhR_PD_247] was run?
Answer: The Kd was 1.36 nM.

Question: {CH2CO}-[Phe(4-COOH)]KVVSN[Trp(1-CH2CO)][Phe(4-COOH)]K[Trp(5-OH)][Aib]VCGP[dS][dS][dS]K([Glu-Glu-Butanoyl(4-(4-I-phenyl))])-NH2 (thioether N-13; lactam 2-7; not fully specified (residue 2)) [GhR_PD_248] was tested. Which Kd did it give?
Answer: The Kd was 1.88 nM.

Question: For {CH2CO}-[Phe(4-COOH)]KVVSN[Trp(1-CH2CO)][Phe(4-COOH)]K[Trp(5-OH)][Aib]VCK([Glu-Glu-Biph4pCO])-NH2 (thioether N-13; lactam 2-7; not fully specified (residue 2)) [GhR_PD_253], which Kd is on record?
Answer: Its Kd is 1.61 nM.

Question: Which Kd does the source give for {CH2CO}-[Phe(4-COOH)]KVVSN[Trp(1-CH2CO)][Phe(4-COOH)]K[Trp(5-OH)][Aib]VCK([Glu-Glu-Hexanoyl(6-Ph)])-NH2 (thioether N-13; lactam 2-7; not fully specified (residue 2)) [GhR_PD_254] here?
Answer: Its Kd is 1.93 nM.

Question: For {CH2CO}-[Phe(4-COOH)]KVVSN[Trp(1-CH2CO)][Phe(4-COOH)]K[Trp(5-OH)][Aib]VCK([Glu-Glu-Ac])-NH2 (thioether N-13; lactam 2-7; not fully specified (residue 2)) [GhR_PD_267], which Kd is on record?
Answer: The Kd was 3.51 nM.

Question: For {CH2CO}-[Phe(4-COOH)]KVVSN[Trp(1-CH2CO)][Phe(4-COOH)]K[Trp(5-OH)][Aib]VCK([Glu-Glu-C15 diacid])-NH2 (thioether N-13; lactam 2-7; not fully specified (residue 2)) [GhR_PD_269], which Kd is on record?
Answer: Its Kd is 3.1 nM.

Question: Which Kd does the source give for {CH2CO}-[Phe(4-COOH)]KVVSN[Trp(1-CH2CO)][Phe(4-COOH)]K[Trp(5-OH)][Aib]VCK([Glu-Glu-C17 diacid])-NH2 (thioether N-13; lactam 2-7; not fully specified (residue 2)) [GhR_PD_270] here?
Answer: Its Kd is 2.53 nM.

Question: For {CH2CO}-[Phe(4-COOH)]KVVSN[Trp(1-CH2CO)][Phe(4-COOH)]K[Trp(5-OH)][Aib]VCK([AEEA-AEEA-Glu-Glu-C14 diacid])-NH2 (thioether N-13; lactam 2-7; not fully specified (residue 2)) [GhR_PD_271], which Kd is on record?
Answer: Its Kd is 3.88 nM.

Question: {CH2CO}-[Phe(4-COOH)]KVVSN[Trp(1-CH2CO)][Phe(4-COOH)]K[Trp(5-OH)][Aib]VCK([AEEA-AEEA-Glu-Glu-C15 diacid])-NH2 (thioether N-13; lactam 2-7; not fully specified (residue 2)) [GhR_PD_272] was tested. Which Kd did it give?
Answer: Its Kd is 3.7 nM.

Question: How did the Kd turn out when {CH2CO}-[Phe(4-COOH)]KVVSN[Trp(1-CH2CO)][Phe(4-COOH)]K[Trp(5-OH)][Aib]VCK([AEEA-AEEA-Glu-Glu-C16 diacid])-NH2 (thioether N-13; lactam 2-7; not fully specified (residue 2)) [GhR_PD_273] was run?
Answer: Its Kd is 3.61 nM.

Question: {CH2CO}-[Phe(4-COOH)]KVVSN[Trp(1-CH2CO)][Phe(4-COOH)]K[Trp(5-OH)][Aib]VCK([AEEA-AEEA-Glu-Glu-C17 diacid])-NH2 (thioether N-13; lactam 2-7; not fully specified (residue 2)) [GhR_PD_274] was tested. Which Kd did it give?
Answer: The Kd was 3.33 nM.

B2: GhR_PD_204 (peptide)
peptide: {CH2CO}-[4Pal]KVVSN[Trp(7-aza)][Phe(4-COOH)]K[Trp(5-OH)][Aib]VC-NH2
modifications: thioether N-13; not fully specified (residue 2); also: albumin binder E-4IPhpCO, attachment site not given here
Question: With B2 as the binder, how does the Kd read?
Answer: Its Kd is 9.43 nM.

B3: GhR_PD_202 (peptide)
peptide: {CH2CO}-[4Pal]KVVSN[Trp(5-OMe)][Phe(4-COOH)]K[Trp(5-OH)][Aib]VC-NH2
modifications: thioether N-13; not fully specified (residue 2); also: albumin binder E-4IPhpCO, attachment site not given here
Question: With B3 as the binder, how does the Kd read?
Answer: Its Kd is 2.77 nM.

B4: GhR_PD_223 (peptide)
peptide: {CH2CO}-[Phe(4-COOH)]KVVSN[Trp(5-OMe)][Phe(4-COOH)]K(X1)[Trp(5-OH)][Aib]VC-NH2
modifications: thioether N-13; not fully specified (residue 2); also: albumin binder E-4IPhpCO, attachment site not given here
Question: With B4 as the binder, how does the Kd read?
Answer: Its Kd is 5.47 nM.

B5: GhR_PD_224 (peptide)
peptide: {CH2CO}-[Phe(4-COOH)]KVVSN[Trp(5-OMe)][Phe(4-COOH)]K[Trp(5-OH)][A4pipaa]VC-NH2
modifications: thioether N-13; not fully specified (residue 2); also: albumin binder E-4IPhpCO, attachment site not given here
Question: With B5 as the binder, how does the Kd read?
Answer: The Kd was 10.8 nM.

Question: How did the Kd turn out when {CH2CO}-[Phe(4-COOH)][NMeK]([Glu-BiPh4pCO])VVSN[Trp(5-OMe)][Phe(4-COOH)]K[Trp(5-OH)][4‑amino‑1‑(carboxymethyl)piperidine‑4‑carboxylic acid]VC-NH2 (thioether N-13) [GhR_PD_255] was run?
Answer: Its Kd is 5.81 nM.

Question: {CH2CO}-[Phe(4-COOH)][NMeK]([Glu-Hexanoyl(6-Ph)])VVSN[Trp(5-OMe)][Phe(4-COOH)]K[Trp(5-OH)][4‑amino‑1‑(carboxymethyl)piperidine‑4‑carboxylic acid]VC-NH2 (thioether N-13) [GhR_PD_256] was tested. Which Kd did it give?
Answer: Its Kd is 2.82 nM.

B6: GhR_PD_208 (peptide)
peptide: {CH2CO}-[Phe(4-COOH)]KVVSN[Trp(5-OMe)][Phe(4-COOH)]K[Trp(5-OH)][Aib]VC-NH2
modifications: thioether N-13; not fully specified (residue 2); also: albumin binder E-4IPhpCO, attachment site not given here
Question: B6 was tested. Which Kd did it give?
Answer: The Kd was 2.19 nM.

B7: GhR_PD_212 (peptide)
peptide: {CH2CO}-[Phe(4-COOH)]KVVSN[Trp(5-OMe)][Phe(4-COOH)]K[Trp(5-OH)][Aib]VC-NH2
modifications: thioether N-13; not fully specified (residue 2); also: albumin binder E-E-4IPhpCO, attachment site not given here
Question: How did the Kd turn out when B7 was run?
Answer: Its Kd is 2.96 nM.

B8: GhR_PD_203 (peptide)
peptide: {CH2CO}-YKVVSN[Trp(7-aza)][Phe(4-COOH)]K[Trp(5-OH)][Aib]VC-NH2
modifications: thioether N-13; not fully specified (residue 2); also: albumin binder E-4IPhpCO, attachment site not given here
Question: With B8 as the binder, how does the Kd read?
Answer: The Kd was 3.95 nM.

B9: GhR_PD_206 (peptide)
peptide: {CH2CO}-YKVVSN[Trp(5-OMe)]YK(X1)[Trp(5-OH)][Aib]VC-NH2
modifications: thioether N-13; not fully specified (residue 2); also: albumin binder E-4IPhpCO, attachment site not given here
Question: How did the Kd turn out when B9 was run?
Answer: The Kd was 9.67 nM.

Question: Which Kd does the source give for {CH2CO}-Y[MeK]([Glu-Glu-Butanoyl(4-(4-I-phenyl))])VVSN[Trp(5-OMe)][Phe(4-COOH)]K(X1)[Trp(5-OH)][Aib]VC-NH2 (thioether N-13) [GhR_PD_227] here?
Answer: Its Kd is 7.38 nM.

Question: With {CH2CO}-Y[MeK]([Glu-Glu-Butanoyl(4-(4-I-phenyl))])VVSN[Trp(5-OMe)][Phe(4-COOH)]K[Trp(5-OH)][A4pipaa]VC-NH2 (thioether N-13) [GhR_PD_228] as the binder, how does the Kd read?
Answer: The Kd was 4.13 nM.

B10: GhR_PD_211 (peptide)
peptide: {CH2CO}-YKVVSN[Trp(5-OMe)][Phe(4-COOH)]K[Trp(5-OH)][Aib]VC-NH2
modifications: thioether N-13; not fully specified (residue 2); also: albumin binder E-E-4IPhpCO, attachment site not given here
Question: B10 was tested. Which Kd did it give?
Answer: Its Kd is 3.36 nM.

Question: With {CH2CO}-[Phe(4-COOH)]KVVSN[Trp(1-CH2CO)][Phe(4-COOH)]K[Trp(5-OH)][Aib]VCK([Glu-Glu-Butanoyl(4-(4-I-phenyl))])-NH2 (thioether N-13; lactam 2-7; not fully specified (residue 2)) [GhR_PD_217] as the binder, how does the Kd read?
Answer: Its Kd is 1.46 nM.
